Data as given in publication PMC10786891, “Massively parallel profiling of RNA-targeting CRISPR-Cas13d”.
Changes are numbered by the printed parent chain. Names may count otherwise.

T1: EsCas13d, nuclease-dead (Eubacterium siraeum, UniProt B0MS50, R295A;H300A;R849A;H854A)
T1 sequence: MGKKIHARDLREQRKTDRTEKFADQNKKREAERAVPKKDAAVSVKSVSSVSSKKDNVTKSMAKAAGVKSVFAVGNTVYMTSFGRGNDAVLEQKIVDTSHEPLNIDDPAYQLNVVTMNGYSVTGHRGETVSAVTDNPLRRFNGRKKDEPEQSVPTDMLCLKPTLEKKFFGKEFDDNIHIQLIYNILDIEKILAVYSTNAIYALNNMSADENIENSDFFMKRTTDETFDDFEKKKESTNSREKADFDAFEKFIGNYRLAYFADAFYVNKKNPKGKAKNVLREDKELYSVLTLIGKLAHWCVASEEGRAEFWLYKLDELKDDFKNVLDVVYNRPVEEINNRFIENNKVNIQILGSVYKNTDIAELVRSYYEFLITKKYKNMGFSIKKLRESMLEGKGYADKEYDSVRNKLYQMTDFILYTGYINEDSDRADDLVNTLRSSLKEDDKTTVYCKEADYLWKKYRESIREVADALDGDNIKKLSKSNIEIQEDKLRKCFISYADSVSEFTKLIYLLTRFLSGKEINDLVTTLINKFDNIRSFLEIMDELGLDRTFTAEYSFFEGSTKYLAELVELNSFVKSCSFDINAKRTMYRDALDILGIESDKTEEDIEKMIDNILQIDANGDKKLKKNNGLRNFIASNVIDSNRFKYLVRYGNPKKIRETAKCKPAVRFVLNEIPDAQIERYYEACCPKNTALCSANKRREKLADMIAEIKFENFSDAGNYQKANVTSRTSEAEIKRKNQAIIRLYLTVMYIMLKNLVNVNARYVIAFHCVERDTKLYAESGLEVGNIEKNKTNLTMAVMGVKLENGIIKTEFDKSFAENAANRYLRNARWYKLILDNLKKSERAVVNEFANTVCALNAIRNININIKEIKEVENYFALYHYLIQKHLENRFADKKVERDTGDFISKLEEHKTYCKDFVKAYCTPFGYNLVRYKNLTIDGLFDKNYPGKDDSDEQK

B1: target 1 insG 3' of 19 (mixed)
RNA 1: CACCCGUGCAAAAAUGCAGGGGUCUAAAACUGAGCGGAUAACCUCUCUAUGG
RNA 2: GGGAAUGGAUCCACAUCUACGAAUUCGUACCAUGAGAGAGGUUAUCCGCUCACCGAGAUCGGAAGAGCACACGU
B2: target 1 insU 3' of 22,insG 3' of 9 (mixed)
RNA 1: B1 RNA 1
RNA 2: GGGAAUGGAUCCACAUCUACGAAUUCGUACUCAUAGAGAGGUUAGUCCGCUCACCGAGAUCGGAAGAGCACACGU
B3: target 1 insC 3' of 18,insA 3' of 17 (mixed)
RNA 1: B1 RNA 1
RNA 2: GGGAAUGGAUCCACAUCUACGAAUUCGUACCAUACGAAGAGGUUAUCCGCUCACCGAGAUCGGAAGAGCACACGU
B4: target 1 G12U,A16C (mixed)
RNA 1: B1 RNA 1
RNA 2: GGGAAUGGAUCCACAUCUACGAAUUCGUACCAUAGCGAGUUUAUCCGCUCACCGAGAUCGGAAGAGCACACGU
B5: target 1 C7A,A20U (mixed)
RNA 1: B1 RNA 1
RNA 2: B4 RNA 2 with A32U, C36A, U40G, C45A
B6: target 1 A1C,C7G (mixed)
RNA 1: B1 RNA 1
RNA 2: B4 RNA 2 with C36A, U40G, C45G, A51C
B7: target 1 insU 3' of 6 (mixed)
RNA 1: B1 RNA 1
RNA 2: GGGAAUGGAUCCACAUCUACGAAUUCGUACCAUAGAGAGGUUAUCCUGCUCACCGAGAUCGGAAGAGCACACGU
B8: target 1 insG 3' of 19,insU 3' of 9 (mixed)
RNA 1: B1 RNA 1
RNA 2: B2 RNA 2 with U31C, C32A, A33U, U34G, G45U
B9: target 1 G15A,G17U (mixed)
RNA 1: B1 RNA 1
RNA 2: B4 RNA 2 with G35U, C36A, G37A, U40G
B10: target 1 insG 3' of 16,insA 3' of 8 (mixed)
RNA 1: B1 RNA 1
RNA 2: B2 RNA 2 with U31C, C32A, A33U, U34A, A35G, G36A, A37G, G45U, U46A
B11: target 1 insA 3' of 19,insG 3' of 16 (mixed)
RNA 1: B1 RNA 1
RNA 2: B3 RNA 2 with C35A, A38G
B12: target 1 insU 3' of 13,insA 3' of 3 (mixed)
RNA 1: B1 RNA 1
RNA 2: GGGAAUGGAUCCACAUCUACGAAUUCGUACCAUAGAGAGUGUUAUCCGCUACACCGAGAUCGGAAGAGCACACGU
B13: target 1 C7G (mixed)
RNA 1: B1 RNA 1
RNA 2: B4 RNA 2 with C36A, U40G, C45G
B14: target 1 U3A,G12C (mixed)
RNA 1: B1 RNA 1
RNA 2: B4 RNA 2 with C36A, U40C, U49A
B15: target 1 insG 3' of 6,insA 3' of 3 (mixed)
RNA 1: B1 RNA 1
RNA 2: B12 RNA 2 with U40G, G41U, U43A, A44U, U45C, C47G
B16: target 1 insG 3' of 4,insA 3' of 4 (mixed)
RNA 1: B1 RNA 1
RNA 2: GGGAAUGGAUCCACAUCUACGAAUUCGUACCAUAGAGAGGUUAUCCGCGAUCACCGAGAUCGGAAGAGCACACGU
B17: target 1 insU 3' of 5,insG 3' of 3 (mixed)
RNA 1: B1 RNA 1
RNA 2: B16 RNA 2 with C48U, G49C, A50U, U51G
B18: target 1 insU 3' of 15,insG 3' of 3 (mixed)
RNA 1: B1 RNA 1
RNA 2: B12 RNA 2 with A38U, G39A, U40G, A51G
B19: target 1 C2A,C4U (mixed)
RNA 1: B1 RNA 1
RNA 2: B4 RNA 2 with C36A, U40G, C48U, C50A
B20: target 1 insC 3' of 12,insA 3' of 5 (mixed)
RNA 1: B1 RNA 1
RNA 2: B12 RNA 2 with U40G, G41C, C49A, U50C, A51U
B21: target 1 A9G,G15A (mixed)
RNA 1: B1 RNA 1
RNA 2: B4 RNA 2 with C36A, G37A, U40G, A43G
B22: target 1 insA 3' of 11,insG 3' of 3 (mixed)
RNA 1: B1 RNA 1
RNA 2: B12 RNA 2 with U40G, G41U, U42A, A51G
B23: target 1 insA 3' of 12,insG 3' of 10 (mixed)
RNA 1: B1 RNA 1
RNA 2: B3 RNA 2 with C35G, G36A, A37G, A40G, G41A, G42U, U44G
B24: target 1 del3,del8 (mixed)
RNA 1: B1 RNA 1
RNA 2: GGGAAUGGAUCCACAUCUACGAAUUCGUACCAUAGAGAGGUUACCGCCACCGAGAUCGGAAGAGCACACGU
B25: target 1 insA 3' of 19,insA 3' of 13 (mixed)
RNA 1: B1 RNA 1
RNA 2: B3 RNA 2 with C35A, A38G, G39A, A40G, G41A
B26: target 1 insA 3' of 6,insG 3' of 4 (mixed)
RNA 1: B1 RNA 1
RNA 2: B16 RNA 2 with G47A, C48G, G49C, A50G
B27: target 1 insU 3' of 13,insG 3' of 8 (mixed)
RNA 1: B1 RNA 1
RNA 2: B12 RNA 2 with C46G, G48C, C49G, U50C, A51U
B28: target 1 C6A,A18U (mixed)
RNA 1: B1 RNA 1
RNA 2: B4 RNA 2 with A34U, C36A, U40G, C46A
B29: target 1 insA 3' of 22,insU 3' of 9 (mixed)
RNA 1: B1 RNA 1
RNA 2: B2 RNA 2 with U31A, G45U

Molecular target: T1, EsCas13d, nuclease-dead
Test: crRNA (strand 1, pre-loaded); Mg2+; 40 mM Tris-HCl pH 7.5, 150 mM NaCl, 6 mM MgCl2, 1 mM DTT, 0.1% Tween-20, 0.2 mg/ml BSA; 25 C; 10 min per concentration, then washed
Conditions: tags: His6-TwinStrep-SUMO cleaved; N-terminal SNAP kept (SNAP-Surface 488); label: 3' end held by stalled T7 RNA polymerase

In order of rising Kd:
1. B16  4.63 ± 0.25 nM
2. B15  6.9 ± 0.4 nM
3. B18  6.99 ± 0.32 nM
4. B24  7.05 ± 0.33 nM
5. B14  8.5 ± 0.4 nM
6. B6  8.8 ± 0.7 nM
7. B13  8.8 ± 0.5 nM
8. B20  10.4 ± 1.1 nM
9. B21  11.6 ± 0.7 nM
10. B27  11.9 ± 1.3 nM
11. B22  12.1 ± 0.6 nM
12. B26  12.7 ± 0.6 nM
13. B7  12.8 ± 0.7 nM
14. B17  12.9 ± 0.9 nM
15. B25  17.9 ± 2 nM
16. B29  21.6 ± 1.5 nM
17. B10  22.1 ± 1.8 nM
18. B12  24 ± 3.1 nM
19. B28  26.7 ± 2.1 nM
20. B23  29.2 ± 3.2 nM
21. B19  33.5 ± 3.5 nM
22. B5  45 ± 5 nM
23. B11  46 ± 6 nM
24. B1  50 ± 4 nM
25. B3  50 ± 6 nM
26. B9  73 ± 13 nM
27. B2  76 ± 12 nM
28. B4  76 ± 14 nM
29. B8  92 ± 34 nM
